Source: IntAct's records for PubMed 29892012

B1: Galectin-8 (Homo sapiens), O00214 (parent)
chain: MMLSLNNLQNIIYNPVIPFVGTIPDQLDPGTLIVIRGHVPSDADRFQVDLQNGSSMKPRADVAFHFNPRFKRAGCIVCNTLINEKWGREEITYDTPFKREKSFEIVIMVLKDKFQVAVNGKHTLLYGHRIGPEKIDTLGIYGKVNIHSIGFSFSSDLQSTQASSLELTEISRENVPKSGTPQLRLPFAARLNTPMGPGRTVVVKGEVNANAKSFNVDLLAGKSKDIALHLNPRLNIKAFVRNSFLQESWGEEERNITSFPFSPGMYFEMIIYCDVREFKVAVNGVHSLEYKHRFKELSSIDTLEINGDIHLLEVRSW
partner: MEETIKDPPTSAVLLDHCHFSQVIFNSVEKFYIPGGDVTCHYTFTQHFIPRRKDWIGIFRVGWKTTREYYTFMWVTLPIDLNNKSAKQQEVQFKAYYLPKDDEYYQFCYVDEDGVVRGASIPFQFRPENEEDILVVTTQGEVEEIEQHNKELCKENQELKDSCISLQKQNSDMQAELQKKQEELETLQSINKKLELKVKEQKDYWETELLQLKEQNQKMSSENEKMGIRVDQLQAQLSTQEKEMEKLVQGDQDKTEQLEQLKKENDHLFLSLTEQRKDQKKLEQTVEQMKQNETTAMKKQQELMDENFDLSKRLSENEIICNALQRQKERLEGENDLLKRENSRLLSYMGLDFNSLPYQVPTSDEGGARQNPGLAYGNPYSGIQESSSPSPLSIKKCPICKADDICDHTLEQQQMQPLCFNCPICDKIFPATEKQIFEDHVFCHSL
B2: Acetylcholine receptor subunit gamma (Homo sapiens), P07510 (parent)
chain: MHGGQGPLLLLLLLAVCLGAQGRNQEERLLADLMQNYDPNLRPAERDSDVVNVSLKLTLTNLISLNEREEALTTNVWIEMQWCDYRLRWDPRDYEGLWVLRVPSTMVWRPDIVLENNVDGVFEVALYCNVLVSPDGCIYWLPPAIFRSACSISVTYFPFDWQNCSLIFQSQTYSTNEIDLQLSQEDGQTIEWIFIDPEAFTENGEWAIQHRPAKMLLDPAAPAQEAGHQKVVFYLLIQRKPLFYVINIIAPCVLISSVAILIHFLPAKAGGQKCTVAINVLLAQTVFLFLVAKKVPETSQAVPLISKYLTFLLVVTILIVVNAVVVLNVSLRSPHTHSMARGVRKVFLRLLPQLLRMHVRPLAPAAVQDTQSRLQNGSSGWSITTGEEVALCLPRSELLFQQWQRQGLVAAALEKLEKGPELGLSQFCGSLKQAAPAIQACVEACNLIACARHQQSHFDNGNEEWFLVGRVLDRVCFLAMLSLFICGTAGIFLMAHYNRVPALPFPGDPRPYLPSPD
partner: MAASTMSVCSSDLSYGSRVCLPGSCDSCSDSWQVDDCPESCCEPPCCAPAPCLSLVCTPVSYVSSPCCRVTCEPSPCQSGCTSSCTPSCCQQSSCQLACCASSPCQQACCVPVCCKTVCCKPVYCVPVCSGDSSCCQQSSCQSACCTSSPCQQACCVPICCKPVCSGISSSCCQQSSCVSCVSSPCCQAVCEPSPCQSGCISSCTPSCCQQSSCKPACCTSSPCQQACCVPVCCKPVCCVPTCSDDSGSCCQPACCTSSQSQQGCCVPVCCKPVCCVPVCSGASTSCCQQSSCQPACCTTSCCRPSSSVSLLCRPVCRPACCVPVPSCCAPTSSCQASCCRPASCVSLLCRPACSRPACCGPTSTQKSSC
B3: Zinc finger protein ZXDC (Homo sapiens), Q2QGD7 (parent)
chain: MDLPALLPAPTARGGQHGGGPGPLRRAPAPLGASPARRRLLLVRGPEDGGPGARPGEASGPSPPPAEDDSDGDSFLVLLEVPHGGAAAEAAGSQEAEPGSRVNLASRPEQGPSGPAAPPGPGVAPAGAVTISSQDLLVRLDRGVLALSAPPGPATAGAAAPRRAPQASGPSTPGYRCPEPQCALAFAKKHQLKVHLLTHGGGQGRRPFKCPLEGCGWAFTTSYKLKRHLQSHDKLRPFGCPVGGCGKKFTTVYNLKAHMKGHEQESLFKCEVCAERFPTHAKLSSHQRSHFEPERPYKCDFPGCEKTFITVSALFSHNRAHFREQELFSCSFPGCSKQYDKACRLKIHLRSHTGERPFICDSDSCGWTFTSMSKLLRHRRKHDDDRRFTCPVEGCGKSFTRAEHLKGHSITHLGTKPFECPVEGCCARFSARSSLYIHSKKHVQDVGAPKSRCPVSTCNRLFTSKHSMKAHMVRQHSRRQDLLPQLEAPSSLTPSSELSSPGQSELTNMDLAALFSDTPANASGSAGGSDEALNSGILTIDVTSVSSSLGGNLPANNSSLGPMEPLVLVAHSDIPPSLDSPLVLGTAATVLQQGSFSVDDVQTVSAGALGCLVALPMKNLSDDPLALTSNSNLAAHITTPTSSSTPRENASVPELLAPIKVEPDSPSRPGAVGQQEGSHGLPQSTLPSPAEQHGAQDTELSAGTGNFYLESGGSARTDYRAIQLAKEKKQRGAGSNAGASQSTQRKIKEGKMSPPHFHASQNSWLCGSLVVPSGGRPGPAPAAGVQCGAQGVQVQLVQDDPSGEGVLPSARGPATFLPFLTVDLPVYVLQEVLPSSGGPAGPEATQFPGSTINLQDLQ
partner: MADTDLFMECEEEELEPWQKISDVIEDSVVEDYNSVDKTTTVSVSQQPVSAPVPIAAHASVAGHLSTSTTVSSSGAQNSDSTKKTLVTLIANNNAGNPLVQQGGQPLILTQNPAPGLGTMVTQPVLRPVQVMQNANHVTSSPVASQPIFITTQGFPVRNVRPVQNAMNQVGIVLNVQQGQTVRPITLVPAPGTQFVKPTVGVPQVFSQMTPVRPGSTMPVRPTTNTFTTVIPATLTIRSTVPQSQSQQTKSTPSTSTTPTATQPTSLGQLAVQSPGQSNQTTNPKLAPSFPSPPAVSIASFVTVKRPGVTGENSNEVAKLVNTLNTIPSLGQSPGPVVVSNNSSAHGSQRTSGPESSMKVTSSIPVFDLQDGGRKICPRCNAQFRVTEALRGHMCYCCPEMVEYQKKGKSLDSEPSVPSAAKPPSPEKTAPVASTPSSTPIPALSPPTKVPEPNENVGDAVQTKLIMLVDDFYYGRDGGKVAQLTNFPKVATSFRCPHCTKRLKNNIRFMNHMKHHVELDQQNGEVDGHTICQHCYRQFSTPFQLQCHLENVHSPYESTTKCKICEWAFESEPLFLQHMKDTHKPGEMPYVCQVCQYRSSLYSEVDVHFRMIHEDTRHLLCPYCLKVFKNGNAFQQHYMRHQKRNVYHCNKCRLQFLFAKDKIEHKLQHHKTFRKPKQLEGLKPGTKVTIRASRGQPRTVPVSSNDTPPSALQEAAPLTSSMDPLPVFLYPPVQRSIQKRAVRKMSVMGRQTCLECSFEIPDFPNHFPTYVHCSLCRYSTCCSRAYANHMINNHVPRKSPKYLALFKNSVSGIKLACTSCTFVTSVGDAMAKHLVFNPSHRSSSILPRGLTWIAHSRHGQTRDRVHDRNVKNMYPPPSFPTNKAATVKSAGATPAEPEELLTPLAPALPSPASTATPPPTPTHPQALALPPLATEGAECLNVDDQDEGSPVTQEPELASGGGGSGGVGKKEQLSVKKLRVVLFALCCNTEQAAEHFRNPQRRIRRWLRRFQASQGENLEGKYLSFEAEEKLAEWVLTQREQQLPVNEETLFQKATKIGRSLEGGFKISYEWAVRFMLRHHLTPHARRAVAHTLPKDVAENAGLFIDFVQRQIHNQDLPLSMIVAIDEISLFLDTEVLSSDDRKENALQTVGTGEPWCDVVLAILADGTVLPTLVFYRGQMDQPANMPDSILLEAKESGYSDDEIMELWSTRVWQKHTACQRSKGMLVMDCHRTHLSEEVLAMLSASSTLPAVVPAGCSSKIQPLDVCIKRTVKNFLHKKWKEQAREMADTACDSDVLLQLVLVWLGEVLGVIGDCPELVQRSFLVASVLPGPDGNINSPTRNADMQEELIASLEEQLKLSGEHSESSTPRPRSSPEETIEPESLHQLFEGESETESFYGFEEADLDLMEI
B4: Pre-B-cell leukemia transcription factor-interacting protein 1 (Homo sapiens), Q96AQ6 (parent)
chain: MASCPDSDNSWVLAGSESLPVETLGPASRMDPESERALQAPHSPSKTDGKELAGTMDGEGTLFQTESPQSGSILTEETEVKGTLEGDVCGVEPPGPGDTVVQGDLQETTVVTGLGPDTQDLEGQSPPQSLPSTPKAAWIREEGRCSSSDDDTDVDMEGLRRRRGREAGPPQPMVPLAVENQAGGEGAGGELGISLNMCLLGALVLLGLGVLLFSGGLSESETGPMEEVERQVLPDPEVLEAVGDRQDGLREQLQAPVPPDSVPSLQNMGLLLDKLAKENQDIRLLQAQLQAQKEELQSLMHQPKGLEEENAQLRGALQQGEAFQRALESELQQLRARLQGLEADCVRGPDGVCLSGGRGPQGDKAIREQGPREQEPELSFLKQKEQLEAEAQALRQELERQRRLLGSVQQDLERSLQDASRGDPAHAGLAELGHRLAQKLQGLENWGQDPGVSANASKAWHQKSHFQNSREWSGKEKWWDGQRDRKAEHWKHKKEESGRERKKNWGGQEDREPAGRWKEGRPRVEESGSKKEGKRQGPKEPPRKSGSFHSSGEKQKQPRWREGTKDSHDPLPSWAELLRPKYRAPQGCSGVDECARQEGLTFFGTELAPVRQQELASLLRTYLARLPWAGQLTKELPLSPAFFGEDGIFRHDRLRFRDFVDALEDSLEEVAVQQTGDDDEVDDFEDFIFSHFFGDKALKKRSGKKDKHSQSPRAAGPREGHSHSHHHHHRG
B5: Rho guanine nucleotide exchange factor 3 (Homo sapiens), Q9NR81 (parent)
chain: MVAKDYPFYLTVKRANCSLELPPASGPAKDAEEPSNKRVKPLSRVTSLANLIPPVKATPLKRFSQTLQRSISFRSESRPDILAPRPWSRNAAPSSTKRRDSKLWSETFDVCVNQMLTSKEIKRQEAIFELSQGEEDLIEDLKLAKKAYHDPMLKLSIMTEQELNQIFGTLDSLIPLHEELLSQLRDVRKPDGSTEHVGPILVGWLPCLSSYDSYCSNQVAAKALLDHKKQDHRVQDFLQRCLESPFSRKLDLWNFLDIPRSRLVKYPLLLREILRHTPNDNPDQQHLEEAINIIQGIVAEINTKTGESECRYYKERLLYLEEGQKDSLIDSSRVLCCHGELKNNRGVKLHVFLFQEVLVITRAVTHNEQLCYQLYRQPIPVKDLLLEDLQDGEVRLGGSLRGAFSNNERIKNFFRVSFKNGSQSQTHSLQANDTFNKQQWLNCIRQAKETVLCAAGQAGVLDSEGSFLNPTTGSRELQGETKLEQMDQSDSESDCSMDTSEVSLDCERMEQTDSSCGNSRHGESNV
partner: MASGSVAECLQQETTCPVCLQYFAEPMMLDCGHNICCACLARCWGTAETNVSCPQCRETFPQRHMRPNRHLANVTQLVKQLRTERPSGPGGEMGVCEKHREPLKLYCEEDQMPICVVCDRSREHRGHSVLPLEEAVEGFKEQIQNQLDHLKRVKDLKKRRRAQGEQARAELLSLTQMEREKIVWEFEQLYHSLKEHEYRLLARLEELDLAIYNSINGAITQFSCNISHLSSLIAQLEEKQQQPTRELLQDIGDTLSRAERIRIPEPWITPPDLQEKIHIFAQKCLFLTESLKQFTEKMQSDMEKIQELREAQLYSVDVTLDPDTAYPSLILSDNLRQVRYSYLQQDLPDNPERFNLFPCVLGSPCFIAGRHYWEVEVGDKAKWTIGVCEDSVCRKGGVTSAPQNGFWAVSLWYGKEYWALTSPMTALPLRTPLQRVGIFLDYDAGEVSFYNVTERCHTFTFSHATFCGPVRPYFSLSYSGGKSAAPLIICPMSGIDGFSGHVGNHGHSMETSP
B6: Late cornified envelope protein 1B (Homo sapiens), Q5T7P3 (parent)
chain: MSCQQNQQQCQPPPKCIPKCPPKCLTPRCPPKCPPKCPPVSSCCSVSSGGCCGSSSGGSCGSSSGGCCSSGGGGCCLSHHRRRRSHCHRPQSSGCCSQPSGGSSCCGGGSGQHSGGCC
partner: B2 partner

Variants of: B1
Conditions: with caco2_human CALCOCO2, Q13137

Row | Variant | effect of a mutation on the interaction
1 | P194T | with no effect

Variants of: B2
Conditions: with kr107_human KRTAP10-7, P60409

Row | Variant | effect of a mutation on the interaction
2 | I448T | with no effect

Variants of: B3
Conditions: with pogz_human POGZ

Row | Variant | effect of a mutation on the interaction
3 | T589M | with no effect

Variants of: B4
Conditions: with mdfi_human MDFI

Row | Variant | effect of a mutation on the interaction
4 | V238M | with no effect

Variants of: B5
Conditions: with tri27_human TRIM27, P14373

Row | Variant | effect of a mutation on the interaction
5 | P34S | with no effect

Variants of: B6
Conditions: with kr107_human KRTAP10-7, P60409

Row | Variant | effect of a mutation on the interaction
6 | C16Y | disrupting interaction strength
